# Test results: patent US20240317834A1, “COMPOSITIONS AND METHODS FOR NEUROLOGICAL DISEASES” (CODA BIOTHERAPEUTICS, INC., priority 2020, published 2024)
# Test system: Lenti-X 293T cells
# Assay: YFP fluorescence quenching anion reporter plate reader assay of engineered receptors stimulated with acetylcholine or a non-native ligand
# Type: cell-based
# Text: To screen these mutant LGICs for those having novel response profiles to ligands, an anion reporter assay was developed to assess the function of the LGICs in a high throughput format. In this assay, cells expressing a YFP reporter whose fluorescence is quenched in the presence of anion are transfected with DNA encoding the channel of interest. Upon exposure to ligand, channels that are activated will flux anion, resulting in a dose-dependent quench of the YFP that can be detected on a plate reader. The greater the quench signal (i.e., the more positive the value), the higher the ligand activity on the receptor is.
# Lenti-X 293T cells (LX293T, Clontech) were maintained in DMEM containing 10% FBS and 1% penicillin/streptomycin (Invitrogen). […] Two days before assay, cells were split at a density of 20,000 cells/well in a 96-well tissue culture plate coated with poly-d lysine (Thermo Scientific). The next day, the cells were transiently transfected with 0.1 μg of DNA per well using standard Fugene protocol (Promega). On the day of assay, cells were washed 2 times in 1× extracellular solution (1×ECS: 140 mM NaCl, 5 mM KCl, 1 mM MgCl2, 2 mM CaCl2), 10 mM HEPES, 10 mM glucose, pH 7.2, mOsms 300). After the last wash, 100 μL of 1×ECS was added to the wells and the plate was incubated at 37° C. for 30 min. While incubating the plate, the drugs were diluted to a 2× concentration in 1×ECS-NaI (same components as 1×ECS except the 140 mM NaCl was replaced by 140 mM NaI). The plates were then read on a Flexstation3 (Molecular Devices). Each well, 8 wells at a time, of the plate is read for 2 min using a Flexstation3 (Molecular Devices) as follows: 1) a baseline YFP fluorescence is read for 17 sec, 2) 100 μL of ligand is added, and 3) the changes in YFP fluorescence are then measured every 1.3 sec for 1 minute and 43 seconds. The percent quench is calculated from the average fluorescence of the last 10 seconds of the read divided by the baseline average of the first 15 seconds prior to the ligand addition.
# FIGS. 1A-1J provide heat maps of the percent quench of YFP fluorescence following stimulation by various doses of either acetylcholine or the non-native ligand as indicated in the Figures. CODA71 (SEQ ID NO: 33) was used as a control, and CODA75 (SEQ ID NO: 29, a non-responding chimeric engineered receptor) was used as the negative control. Quenching of the fluorescence signal, as indicated by blue shaded cells, indicate the level of engineered receptor activation by the non-native ligand at that concentration.
molecule,measurement,setting,value
"CODA282: engineered chimeric LGIC receptor, Y115D in SEQ ID NO: 33 (protein, synthetic sequence of chimeric LGIC) MRCSPGGVWLALAASLLHVSLQGEFQRKLYKELVKNYNPLERPVANDSQPLTVYFSLSLLQIMDVDEKNQVLTTNIWLQMSWTDHYLQWNVSEYPGVKTVRFPDGQIWKPDILLDNSADERFDATFHTNVLVNSSGHCQYLPPGIFKSSCPMDLKNFPMDVQTCKLKFGSWSYGGWSLDLQMQEADISGYIPNGEWDLVGIPGKRSERFYECCKEPYPDVTFTVTMRRRMGYYLIQMYIPSLLIVILSWISFWINMDAAPARVGLGITTVLTMTTQSSGSRASLPKVSYVKAIDIWMAVCLLFVFSALLEYAAVNFVSRQHKELLRFRRKRRHHKSPMLNLFQEDEAGEGRFNFSAYGMGPACLQAKDGISVKGANNSNTTNPPPAPSKSPEEMRKLFIQRAKKIDKISRIGFPMAFLIFNMFYWIIYKIVRREDVHNQ",YFP fluorescence quenching using CNL001,"1 nM CNL001, first column",−15.837%
same,YFP fluorescence quenching using CNL001,"1 nM CNL001, second column",−6.519%
same,YFP fluorescence quenching using TC-5619/Bradanicline,1 nM brd,−0.54%
same,YFP fluorescence quenching using TC-5619/Bradanicline,3 nM brd,−7.22%
same,YFP fluorescence quenching using Varenicline,"3 nM var, first column",2.111
same,YFP fluorescence quenching using Varenicline,"3 nM var, second column",−12.265
same,YFP fluorescence quenching using CNL001,"10 nM CNL001, first column",−4.862%
same,YFP fluorescence quenching using CNL001,"10 nM CNL001, second column",−8.244%
same,YFP fluorescence quenching using TC-5619/Bradanicline,10 nM brd,−2.82%
same,YFP fluorescence quenching using TC-5619/Bradanicline,30 nM brd,−16.67%
same,YFP fluorescence quenching using Facinicline,30 nM fac,10.17
same,YFP fluorescence quenching using Varenicline,"30 nM var, first column",−4.433
same,YFP fluorescence quenching using Varenicline,"30 nM var, second column",−6.153
same,YFP fluorescence quenching using CNL001,"50 nM CNL001, first column",−3.807%
same,YFP fluorescence quenching using CNL001,"50 nM CNL001, second column",−2.871%
same,YFP fluorescence quenching using ABT-126,50 nM abt,−21.22%
same,YFP fluorescence quenching using CNL001,"100 nM CNL001, first column",−7.924%
same,YFP fluorescence quenching using CNL001,"100 nM CNL001, second column",2.11%
same,YFP fluorescence quenching using CNL002,100 nM CNL002,−9.7%
same,YFP fluorescence quenching using ABT-126,100 nM abt,−19.7%
same,YFP fluorescence quenching using AZD-0328,100 nM azd0328,3.19%
same,YFP fluorescence quenching using TC-5619/Bradanicline,100 nM brd,−0.02%
same,YFP fluorescence quenching using Facinicline,100 nM fac,24.77
same,YFP fluorescence quenching using ABT-126,300 nM abt,−15.55%
same,YFP fluorescence quenching using AZD-0328,300 nM azd0328,4.79%
same,YFP fluorescence quenching using TC-5619/Bradanicline,300 nM brd,−12.37%
same,YFP fluorescence quenching using Facinicline,300 nM fac,51.04
same,YFP fluorescence quenching using Varenicline,"300 nM var, first column",−0.861
same,YFP fluorescence quenching using Varenicline,"300 nM var, second column",−1.308
same,YFP fluorescence quenching using Varenicline,"500 nM var, first column",0.733
same,YFP fluorescence quenching using Varenicline,"500 nM var, second column",−4.633
same,YFP fluorescence quenching using CNL001,"1 uM CNL001, first column",11.047%
same,YFP fluorescence quenching using CNL001,"1 uM CNL001, second column",8.04%
same,YFP fluorescence quenching using CNL002,1 uM CNL002,−8.37%
same,YFP fluorescence quenching using ABT-126,1 uM abt,−14.31%
same,YFP fluorescence quenching using TC-5619/Bradanicline,1 uM brd,31.23%
same,YFP fluorescence quenching using TC-6987,1 uM tc6987,13.01
same,YFP fluorescence quenching using Varenicline,"1 uM var, first column",−4.512
same,YFP fluorescence quenching using Varenicline,"1 uM var, second column",0.02
same,YFP fluorescence quenching using Facinicline,10 uM fac,79.76
same,YFP fluorescence quenching using TC-6987,10 uM tc6987,14.73
same,YFP fluorescence quenching using CNL002,30 uM CNL002,3.4%
same,YFP fluorescence quenching using AZD-0328,30 uM azd0328,76.78%
same,YFP fluorescence quenching using Facinicline,30 uM fac,81.7
same,YFP fluorescence quenching using TC-6987,500 uM tc6987,14.29
same,"percent quench of YFP fluorescence, 30 nM TC-6683",TC-6683 30 nM,0.365%
same,"percent quench of YFP fluorescence, 300 nM TC-6683",TC-6683 300 nM,−6.865%
same,"percent quench of YFP fluorescence, 3 uM TC-6683",TC-6683 3 uM,−4.927%
same,"percent quench of YFP fluorescence, 30 uM TC-6683",TC-6683 30 uM,−11.259%
same,"percent quench of YFP fluorescence, 100 uM TC-6683",TC-6683 100 uM,−11.894%
same,"percent quench of YFP fluorescence, 10 uM ach",acetylcholine 10 uM,6.81%
same,"percent quench of YFP fluorescence, 100 uM ach",acetylcholine 100 uM,1.19%
same,"percent quench of YFP fluorescence, 1 mM ach",acetylcholine 1 mM,−14.05%
same,"percent quench of YFP fluorescence, 3 mM ach",acetylcholine 3 mM,2.37%
